Columns and labels:
MED1 = molecular target: T1, MED1 (mouse (Mus musculus; endogenous in CH12), UniProt Q925J9 1-1575); assay: cryo-EM structure; endogenous mouse Mediator immunopurified from CH12 nuclear extract through 3×FLAG-MED19 or 3×FLAG-MED25; eluted in 50 mM HEPES pH 7.9, 100 mM KCl, 5% glycerol, 1 mM EDTA, 0.005% NP-40; map at 4.0 Å overall, focused refinement of the MED1 and knob/hook ends (6-10 Å); conditions: both partners purified
T1 construct: MED1, Mus musculus, endogenous Middle module subunit of Mediator; only a partial model of the folded N-terminal portion was built; Partial model only; this part of the map is at about 6-8 Å; also called Mediator subunit MED1; source: endogenous, CH12 mouse B lymphoma nuclear extract; immunopurified as part of Mediator (FLAG M2 agarose, FLAG peptide elution)
T1 sequence (Q925J9 whole entry): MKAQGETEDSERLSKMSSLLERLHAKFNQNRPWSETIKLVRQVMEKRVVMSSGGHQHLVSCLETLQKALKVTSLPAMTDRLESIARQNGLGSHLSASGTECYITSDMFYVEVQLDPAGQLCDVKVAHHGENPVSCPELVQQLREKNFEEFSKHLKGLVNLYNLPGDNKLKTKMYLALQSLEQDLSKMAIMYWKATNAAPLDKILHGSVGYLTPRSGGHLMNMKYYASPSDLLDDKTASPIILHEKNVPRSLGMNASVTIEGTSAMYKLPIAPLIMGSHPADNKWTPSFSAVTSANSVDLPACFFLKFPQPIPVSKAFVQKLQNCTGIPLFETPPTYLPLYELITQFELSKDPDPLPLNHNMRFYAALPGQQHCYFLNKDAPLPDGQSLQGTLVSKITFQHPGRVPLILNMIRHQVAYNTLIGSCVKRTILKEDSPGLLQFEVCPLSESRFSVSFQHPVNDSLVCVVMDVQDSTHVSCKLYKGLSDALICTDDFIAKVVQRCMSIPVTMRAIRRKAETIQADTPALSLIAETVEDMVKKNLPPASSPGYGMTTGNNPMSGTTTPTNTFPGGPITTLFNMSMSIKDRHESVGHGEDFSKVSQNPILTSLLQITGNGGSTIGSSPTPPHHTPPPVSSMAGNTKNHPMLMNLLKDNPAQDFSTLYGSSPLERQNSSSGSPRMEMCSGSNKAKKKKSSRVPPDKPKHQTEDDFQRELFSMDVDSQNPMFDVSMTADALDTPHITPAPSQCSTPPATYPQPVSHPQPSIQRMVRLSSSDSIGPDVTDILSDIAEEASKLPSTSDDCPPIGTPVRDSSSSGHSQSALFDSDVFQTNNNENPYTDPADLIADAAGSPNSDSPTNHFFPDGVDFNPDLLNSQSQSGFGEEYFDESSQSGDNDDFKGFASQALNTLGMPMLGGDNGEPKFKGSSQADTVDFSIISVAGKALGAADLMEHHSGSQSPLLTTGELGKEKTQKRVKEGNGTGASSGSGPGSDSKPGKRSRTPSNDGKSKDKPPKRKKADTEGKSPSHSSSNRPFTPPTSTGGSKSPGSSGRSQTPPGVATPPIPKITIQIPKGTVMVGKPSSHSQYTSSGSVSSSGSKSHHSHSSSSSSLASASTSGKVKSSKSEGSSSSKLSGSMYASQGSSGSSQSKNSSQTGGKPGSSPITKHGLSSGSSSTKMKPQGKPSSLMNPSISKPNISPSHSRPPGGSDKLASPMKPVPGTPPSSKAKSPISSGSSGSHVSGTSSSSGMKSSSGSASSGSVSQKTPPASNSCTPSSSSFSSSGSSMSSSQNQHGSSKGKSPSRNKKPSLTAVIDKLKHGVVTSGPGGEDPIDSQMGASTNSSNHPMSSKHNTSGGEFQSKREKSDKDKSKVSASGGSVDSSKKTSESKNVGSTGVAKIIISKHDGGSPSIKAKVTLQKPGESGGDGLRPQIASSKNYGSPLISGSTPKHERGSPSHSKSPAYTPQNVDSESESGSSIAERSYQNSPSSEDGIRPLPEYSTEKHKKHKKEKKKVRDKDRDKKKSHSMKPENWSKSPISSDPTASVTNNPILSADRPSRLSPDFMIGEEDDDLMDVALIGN

MED4 = molecular target: T2, MED4 (mouse (Mus musculus; endogenous in CH12), UniProt Q9CQA5 1-270); assay: as above; conditions: both partners purified
T2 construct: MED4, Mus musculus, endogenous Middle module subunit of Mediator; source: endogenous, CH12 mouse B lymphoma nuclear extract; immunopurified as part of Mediator (FLAG M2 agarose, FLAG peptide elution)
T2 sequence (looked up): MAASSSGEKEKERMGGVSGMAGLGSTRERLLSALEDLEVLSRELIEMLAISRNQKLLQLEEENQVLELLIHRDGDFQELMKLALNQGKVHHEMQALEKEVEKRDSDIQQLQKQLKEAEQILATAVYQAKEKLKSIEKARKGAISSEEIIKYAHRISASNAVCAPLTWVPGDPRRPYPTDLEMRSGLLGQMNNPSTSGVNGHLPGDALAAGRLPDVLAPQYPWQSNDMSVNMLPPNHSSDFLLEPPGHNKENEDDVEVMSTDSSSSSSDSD

- binding result (MED1): binds
- binding result (MED4): binds
B1: MED9 (natural protein, mouse (Mus musculus; endogenous in CH12), UniProt Q8VCS6 1-142, looked up)
chain: MASSGVAGGRQAEDTLQPPPELLPESKPPPPPQPLPVAALPPPAAPRPQSPAGAKEENYSFLPLVHNVIKCMDKDSPDLHQDLNALKTKFQELRKLIGTMPGIHVSPEQQQQQLHSLREQVRTKNELLQKYKSLCMFEIPKD
notes: MED9, Mus musculus, endogenous Middle module subunit of Mediator; source: endogenous, CH12 mouse B lymphoma nuclear extract; immunopurified as part of Mediator (FLAG M2 agarose, FLAG peptide elution)

From publication PMC7921410, “Structure of mammalian Mediator complex reveals Tail module architecture and interaction with a conserved core” (Nature Communications, 2021)
